Source: the supplement of paper PMC9112550, “Optimization of the antimicrobial peptide Bac7 by deep mutational scanning” (BMC Biology, 2022)

Each sequence was assayed on Escherichia coli TOP10 (assay: shrunken log2 fold change of peptide-encoding DNA abundance (4.5 h post-induction vs induction); higher = less antimicrobial activity (less host growth inhibition)). Details: time post-induction: 4.5 h; library: site-saturation at positions 5, 18, 19, 20.
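Note: peptides expressed intracellularly from a pBAD plasmid library in pooled LB shake-flask culture, induced with 0.3% L-arabinose, DNA abundance read by NGS, three biological replicates, DESeq2 with apeglm shrinkage.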

Sequence	shrunken log2 fold change
RRIRLRPPRLPRPRPRPGLPPRP	0.576
RRIRARPPRLPRPRPRPFTRPRP	0.105
RRIRVRPPRLPRPRPRPIWVPRP	0.154
RRIRDRPPRLPRPRPRPSADPRP	0.368
RRIRNRPPRLPRPRPRPFFCPRP	0.118
RRIRQRPPRLPRPRPRPFLYPRP	-0.615
RRIRTRPPRLPRPRPRPVIPPRP	-0.133
RRIRDRPPRLPRPRPRPMRGPRP	0.937
RRIRHRPPRLPRPRPRPQDPPRP	0.0646
RRIRHRPPRLPRPRPRPNSCPRP	-0.089
RRIRCRPPRLPRPRPRPAWMPRP	-0.0623
RRIRWRPPRLPRPRPRPKITPRP	0.0282
RRIRTRPPRLPRPRPRPHAMPRP	-0.31
RRIRPRPPRLPRPRPRPHNWPRP	0.0255
RRIRGRPPRLPRPRPRPTNQPRP	0.579
RRIRNRPPRLPRPRPRPTDLPRP	-0.228
RRIRTRPPRLPRPRPRPLCAPRP	0.0615
RRIRWRPPRLPRPRPRPMHEPRP	-0.0461
RRIRCRPPRLPRPRPRPSERPRP	-0.0162
RRIRERPPRLPRPRPRPMKGPRP	-0.0658
RRIRGRPPRLPRPRPRPMWVPRP	0.168
RRIRCRPPRLPRPRPRPKTVPRP	-0.109
RRIRPRPPRLPRPRPRPDEIPRP	-0.144
RRIRSRPPRLPRPRPRPTWDPRP	0.53
RRIRCRPPRLPRPRPRPYVMPRP	-0.633

Sequence	shrunken log2 fold change
RRIRHRPPRLPRPRPRPFYFPRP	-0.355
RRIRLRPPRLPRPRPRPATNPRP	-0.253
RRIRYRPPRLPRPRPRPPNKPRP	-0.585
RRIRCRPPRLPRPRPRPTAKPRP	0.226
RRIRHRPPRLPRPRPRPQGHPRP	-0.268
RRIRHRPPRLPRPRPRPFAVPRP	-1.08
RRIRFRPPRLPRPRPRPNGDPRP	-0.131
RRIRNRPPRLPRPRPRPAIRPRP	-0.0992
RRIRCRPPRLPRPRPRPDQCPRP	-0.00126
RRIRLRPPRLPRPRPRPSNGPRP	-0.00256
RRIRMRPPRLPRPRPRPFCKPRP	-0.224
RRIRCRPPRLPRPRPRPISRPRP	-0.503
RRIRWRPPRLPRPRPRPGELPRP	0.532
RRIRMRPPRLPRPRPRPAITPRP	0.0226
RRIRYRPPRLPRPRPRPSYSPRP	-0.438
RRIRLRPPRLPRPRPRPHRGPRP	-0.00203
RRIRTRPPRLPRPRPRPESMPRP	0.0954
RRIRTRPPRLPRPRPRPCYGPRP	-0.146
RRIRVRPPRLPRPRPRPPCHPRP	-0.451
RRIRLRPPRLPRPRPRPDRDPRP	-0.154
RRIRSRPPRLPRPRPRPFQWPRP	0.319
RRIRRRPPRLPRPRPRPYDIPRP	-0.249
RRIRDRPPRLPRPRPRPTTLPRP	0.525
RRIRCRPPRLPRPRPRPAWTPRP	-0.154
RRIRERPPRLPRPRPRPNSSPRP	-0.494

Sequence	shrunken log2 fold change
RRIRHRPPRLPRPRPRPNPDPRP	-0.0353
RRIRFRPPRLPRPRPRPYTHPRP	-0.532
RRIRWRPPRLPRPRPRPWNDPRP	0.0222
RRIRVRPPRLPRPRPRPTFCPRP	-0.0418
RRIRFRPPRLPRPRPRPYWRPRP	-0.0769
RRIRFRPPRLPRPRPRPMRHPRP	0.0162
RRIRIRPPRLPRPRPRPGFGPRP	0.28
RRIRPRPPRLPRPRPRPQYLPRP	-0.769
RRIRLRPPRLPRPRPRPQCWPRP	-0.0159
RRIRNRPPRLPRPRPRPPRSPRP	0.446
RRIRLRPPRLPRPRPRPVSKPRP	-0.181
RRIRARPPRLPRPRPRPILWPRP	0.254
RRIRWRPPRLPRPRPRPLTPPRP	0.412
RRIRLRPPRLPRPRPRPLKTPRP	-0.0135
RRIRERPPRLPRPRPRPVPCPRP	-0.193
RRIRHRPPRLPRPRPRPDCFPRP	0.3
RRIRTRPPRLPRPRPRPMLPPRP	-0.0543
RRIRNRPPRLPRPRPRPDSTPRP	-0.028
RRIRIRPPRLPRPRPRPWQDPRP	-0.0109
RRIRMRPPRLPRPRPRPGIVPRP	0.332
RRIRLRPPRLPRPRPRPCWSPRP	-0.172
RRIRQRPPRLPRPRPRPMCIPRP	0.0119
RRIRMRPPRLPRPRPRPDQIPRP	0.0408
RRIRCRPPRLPRPRPRPAYYPRP	-0.476
RRIRHRPPRLPRPRPRPEHVPRP	0.0342

Sequence	shrunken log2 fold change
RRIRRRPPRLPRPRPRPMWRPRP	0.312
RRIRWRPPRLPRPRPRPISSPRP	-0.0629
RRIRFRPPRLPRPRPRPMWLPRP	0.0605
RRIRPRPPRLPRPRPRPRKFPRP	-0.188
RRIRYRPPRLPRPRPRPQHIPRP	-0.754
RRIRTRPPRLPRPRPRPSMAPRP	0.444
RRIRVRPPRLPRPRPRPVWDPRP	0.142
RRIRVRPPRLPRPRPRPELPPRP	-0.0996
RRIRTRPPRLPRPRPRPGKKPRP	-0.0783
RRIRDRPPRLPRPRPRPAIDPRP	0.336
RRIRVRPPRLPRPRPRPDGLPRP	0.0431
RRIRNRPPRLPRPRPRPQDHPRP	-0.33
RRIRARPPRLPRPRPRPCFLPRP	-0.24
RRIRYRPPRLPRPRPRPFNCPRP	-0.362
RRIRLRPPRLPRPRPRPDTNPRP	-0.103
RRIRSRPPRLPRPRPRPDEMPRP	0.435
RRIRDRPPRLPRPRPRPPCYPRP	-0.0706
RRIRLRPPRLPRPRPRPNWRPRP	0.292
RRIRQRPPRLPRPRPRPFHKPRP	-0.0921
RRIRYRPPRLPRPRPRPKLRPRP	-0.111
RRIRWRPPRLPRPRPRPKPPPRP	0.821
RRIRERPPRLPRPRPRPEYNPRP	-0.274
RRIRIRPPRLPRPRPRPTRMPRP	0.0519
RRIRVRPPRLPRPRPRPTCFPRP	-0.155
RRIRHRPPRLPRPRPRPKLNPRP	-0.248

Sequence	shrunken log2 fold change
RRIRWRPPRLPRPRPRPKEFPRP	-0.228
RRIRRRPPRLPRPRPRPVCDPRP	0.621
RRIRNRPPRLPRPRPRPTQAPRP	0.24
RRIRRRPPRLPRPRPRPEQEPRP	0.0308
RRIRPRPPRLPRPRPRPGCIPRP	-0.0111
RRIRTRPPRLPRPRPRPCECPRP	0.0538
RRIRNRPPRLPRPRPRPEWVPRP	0.0314
RRIRLRPPRLPRPRPRPFDAPRP	0.509
RRIRRRPPRLPRPRPRPIRMPRP	0.302
RRIRRRPPRLPRPRPRPLRSPRP	0.531
RRIRFRPPRLPRPRPRPEMIPRP	0.169
RRIRTRPPRLPRPRPRPGRYPRP	0.123
RRIRTRPPRLPRPRPRPHRLPRP	-0.387
RRIRNRPPRLPRPRPRPIANPRP	0.000407
RRIRRRPPRLPRPRPRPSGIPRP	-0.0479
RRIRARPPRLPRPRPRPPSPPRP	0.669
RRIRHRPPRLPRPRPRPQLFPRP	-0.172
RRIRARPPRLPRPRPRPNKQPRP	0.165
RRIRNRPPRLPRPRPRPFQCPRP	-0.0493
RRIRLRPPRLPRPRPRPAAFPRP	0.184
RRIRYRPPRLPRPRPRPLECPRP	-0.183
RRIRDRPPRLPRPRPRPMYYPRP	-0.535
RRIRRRPPRLPRPRPRPDQAPRP	-0.00925
RRIRCRPPRLPRPRPRPIGDPRP	-0.0014
RRIRSRPPRLPRPRPRPVSCPRP	-0.00594

Sequence	shrunken log2 fold change
RRIRRRPPRLPRPRPRPGAKPRP	0.701
RRIRMRPPRLPRPRPRPGGGPRP	1.67
RRIRWRPPRLPRPRPRPCDTPRP	-0.165
RRIRYRPPRLPRPRPRPRWDPRP	-0.0245
RRIRFRPPRLPRPRPRPPVMPRP	0.0132
RRIRMRPPRLPRPRPRPLDSPRP	0.204
RRIRPRPPRLPRPRPRPLVEPRP	0.846
RRIRKRPPRLPRPRPRPSPVPRP	0.191
RRIRRRPPRLPRPRPRPFYHPRP	0.0115
RRIRCRPPRLPRPRPRPWMCPRP	-0.851
RRIRQRPPRLPRPRPRPQPFPRP	-0.0492
RRIRIRPPRLPRPRPRPCMVPRP	-1.06
RRIRLRPPRLPRPRPRPFDMPRP	-0.205
RRIRIRPPRLPRPRPRPDWEPRP	-0.0114
RRIRPRPPRLPRPRPRPAYWPRP	0.212
RRIRNRPPRLPRPRPRPQVDPRP	-0.706
RRIRPRPPRLPRPRPRPRCVPRP	0.0965
RRIRWRPPRLPRPRPRPTTDPRP	0.449
RRIRSRPPRLPRPRPRPMLGPRP	0.106
RRIRLRPPRLPRPRPRPIRMPRP	-0.0243
RRIRMRPPRLPRPRPRPHVFPRP	0.0558
RRIRFRPPRLPRPRPRPIVDPRP	-0.136
RRIRVRPPRLPRPRPRPRTWPRP	0.0366
RRIRCRPPRLPRPRPRPHHWPRP	-0.0852
RRIRFRPPRLPRPRPRPQYSPRP	-0.581
